Laboratory results as given in US20230331816A1, “A METHOD FOR PREPARING PORCINE MYOGLOBIN USING ESCHERICHIA COLI” (iNtRON Biotechnology, Inc., priority 2020, published 2023).

System: iron-deficiency-anemia-induced animals
Assay type: in vivo, Sprague-Dawley rats
Procedure: The composition containing porcine myoglobin prepared according to the present invention was administered to iron-deficiency-anemia-induced animals, whereby the effectiveness of the composition containing porcine myoglobin on alleviating anemia was evaluated. Specifically, after 2 weeks acclimation period, thirty 9-week old Sprague-Dawley rats (female) were divided into 3 groups of 10 rats per group, among which one group was fed with normal feed in an amount of 10% of body weight daily for […] (Group 1; control), and the remaining two groups were fed with iron-deficient feed in an amount of 10% of body weight daily for 6 weeks to induce iron-deficiency anemia (Group 2 and Group 3). After 6 weeks of feeding, it was confirmed that iron-deficiency anemia was induced in the individual rat belonging to Group 2 and Group 3. Then, one of the anemia-induced groups was orally administered once a day with saline alone (Group 2), and the other anemia-induced group was orally administered once a day with solution containing porcine myoglobin (0.1 mg Fe/500 μl solution, Group 3). The administration continued for 5 weeks. During 5 weeks of administration to Group 2 and Group 3, Group 1 was continuously fed with normal feed, and Group 2 and Group 3 were fed with iron-deficient feed. […] After 5 weeks of administration, blood was collected, and whether anemia was alleviated was evaluated.

[1] = female Sprague-Dawley rats on iron-deficient feed, oral once a day, 0.1 mg Fe/500 μl solution, 5 weeks

B1: porcine myoglobin: porcine myoglobin consisting of a globin of SEQ ID NO: 1 and a heme of formula 1, made with Escherichia coli (protein)
chain: MGLSDGEWQLVLNVWGKVEADVAGHGQEVLIRLFKGHPETLEKFDKFKHLKSEDEMKASEDLKKHGNTVLTALGGILKKKGHHEAELTPLAQSHATKHKIPVKYLEFISEAIIQVLQSKHPGDFGADAQGAMSKALELFRNDMAAKYKELGFQG
modifications: heme; Porcine myoglobin
For B1, the “Effectiveness at alleviating iron-deficiency anemia” value (conclusion from blood analysis after 5 weeks of administration) was “effective at alleviating iron-deficiency anemia”, the “Blood test: Hematocrit” value [1] was 39.8 ± 1.0% and the “Blood test: Hemoglobin content” value [1] was 13.7 ± 0.6 g/dL. For the same molecule, the “Weight of rats on 5 weeks after administration” value [1] was 327.2 ± 3.1 g.
